Test results from doi:10.1101/2024.10.21.619395.

Target: G protein-coupled bile acid receptor 1 (GPBAR1), full length, with N-terminal FLAG and BRIL (human) (UniProt Q8TDU6)
Assay: mass photometry

UniProt Q8TDU6, sequence (Q8TDU6 whole entry): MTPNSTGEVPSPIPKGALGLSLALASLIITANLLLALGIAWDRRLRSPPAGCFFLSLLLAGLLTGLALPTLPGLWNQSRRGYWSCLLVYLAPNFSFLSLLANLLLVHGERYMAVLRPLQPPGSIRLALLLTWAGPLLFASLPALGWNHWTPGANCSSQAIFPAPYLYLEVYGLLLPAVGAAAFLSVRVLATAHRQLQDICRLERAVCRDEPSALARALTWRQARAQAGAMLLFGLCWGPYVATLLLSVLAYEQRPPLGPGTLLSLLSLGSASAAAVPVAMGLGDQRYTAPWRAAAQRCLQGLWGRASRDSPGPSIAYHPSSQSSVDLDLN

stoichiometry N: 1
Substance: Heterotrimeric Gs (Gαs, Gβ1, Gγ2) (from UniProt P63096 1-18; P63092 16-394; P62873 2-340; P59768 1-71) (complex)
